Data from patent US9587002B2, “Sequence of nucleotides and peptides GSE 24.2 of dyskerin, which can induce telomerase activity, method for obtaining same, therapeutic compositions and applications thereof” (CONSEJO SUPERIOR DE INVESTIGACIONES CIENTIFICAS, priority 2005, dated 2017).
“Also recorded” adds a separate entry of the source.

Columns and labels:
p38 = experiment: Activation of p38 by cisplatin in 293T cell lines (Western blot); format: cell-based, human; details: 293T cells stably expressing GSE 24.2 vs pLNCX; cisplatin 6 hours
Protocol: FIG. 2.—Cell viability and activation of the JNK and p38 death pathways in 293T cell lines: pLNCX and 24.2, treated with cisplatin. A) Cell viability. After seeding the 293T cells: expressing the empty vector (pLNCX) and GSE 24.2 (24.2) in 24-well plates, they were incubated with concentrations between 0-100 μg/ml of cisplatin. The cell viability was measured by means of the crystal violet technique after 72 hours of exposure to the drug. The data represent the mean of two experiments performed in quadruplicate. B) Activation kinetics. Subsequently, the activation of JNK and p38 was studied using antibodies that specifically recognise the active forms. As a load control, the levels of JNK-1 were detected.
The pLNCX24-2 plasmid containing GSE of the same name was transfected in a stable manner in the 293T cells and, as a control, the pLNCX empty vector was transfected. After verifying, by means of PCR, that the 24.2 cell line contained this insert (data not shown), the response to cisplatin was studied, creating a viability curve with this drug. […] JNK and p38 are MAPKs that are activated in response to genotoxic agents (Sanchez-Perez et al., 1998).
Western Blot and antibodies. 20 μg of protein were separated in SDS-polyacrylamide gels; subsequently, they were transferred to Immobilon-P membranes (Millipore) by humid transfer. […]

hTERT promoter = experiment: hTERT-luc reporter (luciferase) assay in 293T cells; format: cell-based, human
Protocol: FIG. 8.—Activity of the hTERT promoter in the 293T cell lines: pLNCX and 24.2 and in 293T cells transiently transfected with the pLNCX-24.2 construct and the pLNCX empty plasmid. A) Both the pLNCX and the 24.2 cells were transiently transfected with 0.25 μg of the hTERT-luc reporter vector. The cells were seeded in 60-mm plates. After 24 hours of transfection, the cells were lysed and the luciferase activity of 10 μg of total protein was quantified. As a transfection control, the cells were co-transfected with a reporter vector, CMV-Renilla. B) The 293T cells were transfected with the pLNCX vector and the 24.2 plasmid (5 μg), and both were co-transfected with 0.25 μg of the hTERT-luc reporter vector. After seeding the cells as in A, they were transfected with pLNCX and 24.2, and co-transfected with the hTERT-luc reporter vector; subsequently, they were treated as in A. As a transfection control, the CMV-Renilla reporter vector was used. The data correspond to the ratio of relative units of luciferase with respect to non-transfected cells. Each point represents the mean±the standard deviation obtained from 3 independent experiments. C) The 293T cells were transfected with the different GSE 24.4, DSK, TRUB I, TRUB II constructs and the pLNCX empty plasmid (5 μg), and co-transfected with 0.25 μg of the hTERT-luc reporter vector. The cells were seeded in 60-mm plates; after 24 hours of transfection, the cells were lysed and the luciferase activity of 10 μg of total protein was quantified. As a transfection control, the cells were co-transfected with a CMV-Renilla reporter vector. The data correspond to the ratio of relative units of luciferase with respect to non-transfected cells. Each point represents the mean±the standard deviation obtained from 3 independent experiments.
FIG. 9.—Activity of the hTERT promoter following treatment with cisplatin. A) Both the pLNCX cell line and the 24.2 cell line were transiently transfected with 0.25 μg of the hTERTIuc reporter vector. After 24 hours of transfection, they were treated with 3 μg/ml of cisplatin for 8 hours. The cells were seeded in 60-mm plates; after 24 hours of transfection and following treatment with cDDP, the cells were lysed and the luciferase activity of 10 μg of total protein was quantified. As a transfection control, the cells were co-transfected with a CMV-Renilla reporter vector. B) 293T cells which, after being transiently transfected with pLNCX and 24.2, were co-transfected with 0.25 μg of the hTERT-luc reporter vector and treated as in A. After seeding the cells as in A, they were transfected with pLNCX and 24.2, and co-transfected with the hTERT-luc reporter vector; subsequently, they were treated as in A. As a transfection control, the CMV-Renilla reporter vector was used. The data correspond to the ratio of relative units of luciferase with respect to non-transfected cells. Each point represents the mean±the standard deviation obtained from 3 independent experiments.
A) The 293T cells were co-transfected with different constructs (10 μg/DNA per million cells) and the hTERT-luc reporter (1 μg per million cells). The specified cell lines were co-transfected with the hTERT-luc reporter and different quantities of the Mad/myc expression vector. (B) The specified cell lines were co-transfected with the HIV-luc reporter and with different quantities of the Mad/myc expression vector. After 24 h of transfection, the cells were stimulated with 50 ng/ml of TNF-α for 6 hours and the luciferase activity was analysed as described above. CMV-Renilla (0.1 μg/ml per million cells) was used as a control for the transfection efficiency. The data represent the mean of two experiments performed in quadruplicate.
The pseudouridine synthase TRUB domain of dyskerin comprises two structural subdomains: the Trub I and II motifs (Zucchini et al., 2003). These two domains are critical to maintain the global protein structure of dyskerin. […]

B1: GSE 24.2: 165-pb cDNA fragment (nucleotides 268 to 433) of human dyskerin, SEQ ID NO1, encoding peptide SEQ ID NO2, expressed from pLNCX plasmid (nucleic acid, listed as Homo sapiens)
DNA: GGTTTCATTAATCTTGACAAGCCCTCTAACCCCTCTTCCCATGAGGTGGTAGCCTGGATTCGACGGATACTTCGGGTGGAGAAGACAGGGCACAGTGGTACTCTGGATCCCAAGGTGACTGGTTGTTTAATCGTGTGCATAGAACGAGCCACTCGCTTGGTGAAG
modifications: expressed from pLNCX plasmid; CDS (1)..(165) Sequence GSE 24.2
With B1 the “dose of cisplatin required to activate p38” value (p38) was “a greater dose of cisplatin is required to activate both kinases”, the “activity of the hTERT promoter, transient expression” value (hTERT promoter; 293T cells transiently transfected with construct vs empty vector, hTERT-luc, 24 hours) was “increases the activity of the hTERT promoter” and the “hTERT promoter activity following cisplatin, transient expression” value (hTERT promoter; 293T transiently expressing GSE 24.2 vs pLNCX, 3 μg/ml cisplatin 8 hours) was “greater than the baseline activity”. For the same molecule, the “activity of the hTERT promoter, stable expression” value (hTERT promoter; pLNCX 24.2 cell line vs pLNCX, hTERT-luc, 24 hours) was “the activity of the hTERT promoter is greater; also recorded: increased the baseline activity of the telomerase promoter” and the “induction of hTERT promoter activity following cisplatin, relative to pLNCX cells” value (hTERT promoter; stable pLNCX 24.2 cells, 3 μg/ml cisplatin for 8 hours) was 4 times.
